This note sets out measurements from PMC5003437, “Development and Optimization of a Thrombin Sandwich Aptamer Microarray”.

Data set [1] has as its target T1, human alpha-thrombin (Homo sapiens, UniProt P00734;P00734 328-363;364-622). The experiment in a line: sandwich aptamer microarray (fluorescence); thrombin captured on immobilized TBA1, Cy3-streptavidin detection; LOD 0.17 nM (not Kd); 20 mM Tris, 140 mM NaCl, 5 mM KCl, 1 mM MgCl2, pH 7.5, 25 C; 30 min pre-incubation with TBA2, then 2 h on array; PBS wash.
The target of data set [2] is T1, human alpha-thrombin. The experiment in a line: sandwich aptamer microarray (fluorescence); thrombin captured on immobilized TBA1; LOD 0.75 nM (not Kd); 20 mM Tris, 140 mM NaCl, 5 mM KCl, 1 mM MgCl2, pH 7.5, 25 C; 30 min pre-incubation with TBA2, then 2 h on array; PBS wash.

B1: TBA2-biotin (structured_DNA)
DNA: AGTCCGTGGTAGGGCAGGTTGGGGTGACT
Take B1: in data set [1], the binding result is listed as “binds”.

B2: TBA2-Cy5 (structured_DNA)
DNA: AGTCCGTGGTAGGGCAGGTTGGGGTGACT
As to B2, in data set [2], the binding result is reported as “binds”.
